# Test results: US12630850B2, “Enzymatic break down of chlorogenic acid in sunflower-containing products” (Chapman University, priority 2022, dated 2026)
# Values joined by “and” are separate entries in the source; they are usually repeats but may differ in a detail not shown here. Equal entries are not always repeated.
# Legend:
# [1] = Michaelis-Menten assay of CGA hydrolysis in buffer (absorption spectroscopy); assay type: biochemical; details: for kcat: CGA in buffer, room temperature
# Method: Enzymatic assays to determine Michaelis-Menten parameters. Michaelis-Menten assays were conducted at 21° C. using an Agilent Technologies Cary 60 UV-Vis spectrophotometer. A stock solution of CGA was prepared by dissolving CGA in 50 mM HEPES pH 8.0 followed by calculation of concentration using the Lambert-Beer law with an extinction coefficient of 17,194 M^−1 cm^−1 at 330 nm. Subsequent dilutions of stock CGA were prepared to achieve final CGA concentrations of 0.02 mM, 0.04 mM, 0.06 mM, 0.10 mM, 0.20 mM, and 0.40 mM CGA. The final CGA esterase concentration in all enzymatic assays was 10 nM unless noted otherwise. All samples used for enzymatic assays were buffered in 50 mM HEPES, pH 8.0. Absorption scans were taken at 0.05 or 0.1 min intervals for 2 min between wavelengths of 250 nm and 400 nm. For CGA concentrations below 0.1 mM, the pathlength was 1 cm. Above 0.1 mM CGA, the pathlength was 0.5 cm.
# To measure CGA depletion (Δ[CGA]), Equation 1 was used: […]
# A is the absorbance at any time point in the reaction, Ao is the initial absorbance, εCA and εCGA are the extinction coefficients at 340 nm of caffeic acid (CA) and CGA, which are 4.15 mM^−1 cm^−1 and 14.43 mM^−1 cm^−1, respectively. To generate initial rates, (Δ[CGA]| was plotted against time. The change in absorbance during the first minute of the reaction was fit to a linear curve, which is used to generate the reaction rate. We note that the rate of CGA depletion is equivalent to CA formation. To test the effect of salt on enzyme kinetics, the same procedure was used, except that the experiment was run with 0.04 mM CGA buffered in 50 mM HEPES pH 8.0 with 500 mM NaCl.
# Temperature-dependence measurements. A circulating water bath was used to run enzymatic reactions at different temperatures to maintain the temperature in the spectrophotometer within 1° C. of the target temperature. Buffered solution, CGA, and CGA esterase samples were pre-incubated for 10 min at the desired temperature before starting a measurement. All other instrument parameters were the same as for room temperature measurements described above.
# [2] = Circular dichroism thermal and pH stability; assay type: physicochemical
# Method: Circular dichroism, dynamic light scattering and mass spectrometry. Circular dichroism (CD) spectra were taken on a Jasco J-1500 CD spectrophotometer. CGA esterase (0.2 mg mL^−1) was buffered in a solution of approximately 5 mM HEPES, pH 8.0. Spectra were recorded at 4° C. using the following settings: 100 nm min^−1 scan rate, 0.2 nm data pitch, 1.0 nm bandwidth, and 2 s integration time. Five acquisitions were averaged per experimental sample. […] The Tm was estimated by fitting a Boltzmann sigmoidal function to the denaturation curve. For CD spectra that were run at different pH, a concentrated CGA esterase stock solution was diluted to either 0.2 mg mL^−1 or 0.1 mg mL^−1 into solutions of 10 mM buffer at the pH indicated.
# [3] = CGA esterase kinetics in sunflower meal; assay type: biochemical
# Method: Chlorogenic acid esterase kinetics in sunflower meal. To determine the Michaelis-Menten parameters of CGA esterase in undefatted SFM, SFM suspensions were made at following concentrations: 1.0 mg mL^−1, 2.5 mg mL^−1, 10.0 mg mL^−1, 30.0 mg mL^−1, and 100.0 mg mL^−1. All samples were made to a final volume of 10 mL in a solution containing 50 mM HEPES, pH 8.0. Treated samples contained a final enzyme concentration of 10 nM. Reactions were stopped by acidifying the solution by adding 120 μL of 37% HCl at regular intervals for 600 s. Samples were subsequently centrifuged at 10,000 rpm for 10 min. […] The supernatant was then filtered using a 0.2 μm filter and loaded onto an HPLC, as described above. The initial amount of CGA that was present prior to adding enzyme was measured using HPLC.
# HPLC quantification of CGA and CA in sunflower meal and protein isolates. All solutions were diluted ten-fold in 0.1% formic acid in HPLC-grade water before analysis. Quantification of CGA and CA concentration was performed using an Agilent 1260 series HPLC instrument (Agilent Technologies) equipped with a quaternary pump, an automated sample injector, a diode array detector, and a 4.6 mm×150 mm Luna C18(2) column with a 5 μm particle size and 100 Å pore size (Phenomenex). The injection volume was 20 μL. To elute analytes, mobile phases composed of 0.1% formic acid in HPLC-grade water (A) and 0.1% formic acid in HPLC-grade acetonitrile (B) were used in a linear gradient. The gradient is as follows: 0 to 13% B in 1 min, up to 27% B at 8 min, up to 100% B at 8.5 min, isocratic at 100% B to 9.5 min, 100% B returned to 0% B at 9.6 min with 3 min post-time. The concentrations of CGA and CA were calculated from peak integration data based on 10-point standard curve that spanned a concentration range of 0 to 0.1 mg mL^−1.
# [4] = CGA in 50 mM HEPES pH 8.0, 20° C.
# [5] = SFM supernatant, pH 8.0, 20° C.
molecule,measurement,setting,value
"CGA esterase: CGA esterase from L. helveticus (Genbank ID: WP_025283955.1, Uniprot ID: U6F2K7), expressed in Escherichia coli; the dimer is the active form (protein, listed as Lactobacillus helveticus) MSRITIERDGLTLVGDREEPFGEIYDMAIIMHGFAANRNTDLLRQIADDLRDENVASVRFDFNGHGESDGKFEDMTVCNEIADGKAILDYVRTDPHVRDIFLVGHSQGGVVASMLAGLYPDVVKKVVLLAPAAQLKDDALRSNTQGATYDPNHIPDWPLVGNKLGMKLGGFYLRTAQVLPIYEVSQCFTRPVSVIAGTNDQWDPKYAKKYDEVYENSELHMIPNADHRFSGGYKDMAADLTAQFLKPAF",Temperature until which the enzyme is active,[1],at least 50 °C
same,Change of CGA esterase activity with temperature,[1]; 20° C. to 50° C.,increases only weakly
same,Km,[1]; 40° C.,96 ± 6 µM
same,Vmax,[1]; 40° C.,215.4 ± 31.7 mM/min/mg
same,Km,[1]; [4],90 ± 38 µM
same,Vmax,[1]; [4],170.2 ± 32.3 mM/min/mg
same,Vmax,"[1]; CGA in 50 mM HEPES pH 8.0, 20° C., listed as L. helveticus",170.2 mM/min/mg
same,kcat,[1],82 s⁻¹ and 82 ± 15.6 s⁻¹
same,kcat,[1]; listed as L. helveticus CGA esterase,82 s⁻¹
same,kcat,[1]; listed as chlorogenic acid esterase from Lactobacillus helveticus,82 s⁻¹
same,Vmax higher than previously reported,"[1]; vs Song & Baik, 2017",300 fold
same,Tm,"[2]; CD signal at 222 nm, thermal denaturation",65 °C
same,pH range over which the protein is stable (CD spectra),[2]; room temperature (21° C.),6.0-9.0 pH
same,Km in SFM lower than in buffered solution,[3],4.5 fold
same,Meal concentration at which maximal CGA hydrolysis activity is achieved,[3],approximately 100 mg mL^−1
same,Vmax in SFM lower than in buffered solution,[3],60 fold
same,Km,[3]; [5],20 µM
same,Vmax,[3]; [5],2.716 mM/min/mg
